# Assay: soluble fraction after stress (log2 fold change); higher = more stays soluble; pooled small domains, quantitative proteomics
# Conditions: stress: pH 4
# How it was run: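 After pH 4 stress, pooled custom libraries of small protein domains were quantified with high-throughput quantitative proteomics. Aggregation propensity is taken from the fold change in each domain's soluble amount following the acid stress. The scale is log2, where higher values mean more stayed soluble.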
row,Sequence,soluble fraction (log2)
1,HMVSSYTMAIQINGKLRATHDFSVDTSQEDIKKIIINLPAIQKYINGVEIKKFIIVPQKIVNIV,-0.0406
2,HMPNYIDAISALLTLKGVGDRKHASTMANILNLQYNSAKQKLDGKRGITLDEVKKVFQYFNEPF,-0.76
3,HMTEKPTREAHILDQLARDGGVLVAALSRELGVSEVTIRSDLRDLEAAGLLQRTHGGAQASSFQTVL,-0.48
4,HMEVKEVDYSAFMTMTEENSISKVEIEENQILFKKKGDDQTTYKTARMDDPALITRLHDQGVDFTGQ,0.0244
5,HMAEQEELDAIRPDLDGQEIMDILGIKPGREVGAARNFLLELRLDEGPLGYDEAVSRLLTWWAERT,-1.2
6,HMLNVNDVIARNVRAARERKKLTLDGAAELTGVSRSMLAQIEKGEVNPTISVVWKIANGFKVSFTSLVEPQ,-0.0104
7,HMLGNIERALEMLQEVAATMDPVDIRLLLSMAQVESVRGNTEAAVKLIDEALVIDPGNERIEQIRLRVL,-0.869
8,HMPVFYVTGNRVNFRAGPSTGDRVIGSLSQGAAVEVLGPTDDAWINIRDSDGRVGYMSAQFLSQ,-0.213
9,HMTETNSVTINERLTLYRRSRSGRWQARVKLNTGEWHRFSTGTADFEKAKESAHRELHNVGFRAENNLPQ,-0.174
10,HMWQKGEPAITGLKRISKPGLRIYSKNDELPIVYGNRGIAVISTNKGVMTGIEAKRSGVGGEVLFYV,0.104
11,HMTAAPEVRVEGLFKGAAVLKIDGQQVMLKKGRSHSSGVTLVDANAHRAIVEIDGQRHELALHMA,0.0925
12,HMYALGIPVSQYRRTTQVLGHESSYPIAYEDEKQDDDFYLFKFPNIDEYDFKKIVILLKQNGITT,-0.338
13,HMEQVQQIPIEELFPFKEHPFKVLDDEAMQRTVESVAQYGVLAPLIARPRPEGGYEIISGHRRQHAAELYR,-0.445
14,HMVAAITDLPVKSVNGRQMYYYVVRKGETVYSLTHTLGITHDRLVKANRSVEDGLRAGQILYFPVSEFG,-0.00401
15,HMVKNTIHVDLKGEVNKPGVYEVEEGTIVNDLITLANGFTKNAYQDNINLSKKLTDEMVIVVSKKGS,-0.461
16,HMGMEENLLKERKQILMDIMKSKEYQPMKVKELAMVLNVPKEDREELRYVLNELMNEGKIVESKKGKFSIA,0.0605
17,HMKPALFSADELNRLYRYGLSLTGERDRAYDLLQTALEKYLRQSQAPANAMRYVRKIMHNQFIDDYR,-0.0906
18,HMGWQPDPLTTRERLVAELATQASNAQIAEQLHLSVRTVEGHLAHVYTKLGITTRRELPAALAGAR,-2.8e-05
19,HMSLMHEESLKNIRRFINSLPESLRTAFTLREQDGLSYEEIGVITETPIGTVRSRIFRAREAILEHIKKEL,-0.445
20,HMYDRIKLLKLREKRGLTQYELAEKAGISVVTLNKIETSDMAKPFASTLKKIALALGVGIEELS,0.22
21,HMTDFLKTRIDTLGLSTRTLNALSEANVRTIGGIARKKQEDLLEIDGIGEKGIQEIKKMLGEYGITL,-0.52
22,HMIAVIKPSATAEQKAGLVDWIRGQGIDVHISEGHDYTVLGLIGDTSKIDMDLIASLDIVDSVKRVA,-0.168
23,HMRITEQRRTLAKLFADTPGYLSPKDVYDYMGRFYPGLSFDTVYRNLRLLDELGVLEQVVFEDGVKFK,-0.677
24,HMEDPAVYYKILQIPPDASLSEIHRAFEKITSAWDPERYPHISSWKETSAKKLQEIRNAYEKLLILRETG,-0.00219
25,HMKKAIYPGSFDPLTLGHIDIIKRASGIVDELVVGVLNNSAKNSLFSLDERVSMIEEMTKDLPNVSVTSFD,-0.0125

row,Sequence,soluble fraction (log2)
1,HMGALTGQERRAEIMNILRQSTMPLSGAALGKQLGVSRQVVVQDIALLRQSGEEIYATNRGYVTG,≥ 0.43
2,HMIGDYALILNIKGGSDWYLGNRVELLFTDGTSKIVTTDKDYNAKKDMVPTQIVTYKVNDNGEYSLKALPT,-1.2
3,HMAFKDDDVQKAYDRYMDRYGELSVLYSDNGLKVDDDLFYKNNIPPNGKFTKEFFDELYELVNMEFINNY,-0.538
4,HMLGSVRTIRQVLDDGRLIVADGGGNPSVIRRSGALAHETFANGQRVIVDPSGRLALELLPD,0.315
5,HMQDYYTQSDFARYLEDKGIHFPQNKIAVYRKRGKFPKEDLVVAGTPYWSKYTVESFAKHLLEQQN,0.302
6,HMSNENIDQDELQAIIQKVLASNQDAVAKYKAGKTAVIGFLIGQVMRQLNKKIDVALAKKTLLVFLEK,0.0782
7,HMNDELMEQIDEWHKAEKHQEIIDALEQIPEAERDFETTGFLARAYNNIEEYAKAADLLESVRE,-1.51
8,HMNMEPNWLKWAKQLAALAQNGLTYSDNPYEIERYEHIRRIAAEMMAEGFELDTKTILELFPREKG,-1.41
9,HMQWQPSEEAMQRLEQHGIPRAFSFSQLDAFVLQGQEQGSNRNDWNTRFFRFIKNQWVYAQN,-1.17
10,HMGEIHALIPGLVSRLFVKPGDRVENGQGLLILEAMKMENEIDSPISGVVGKIYIKAGDKVEKGELIMEIN,0.115
11,HMGTAEDYLLPRRAEILSIIRDHEFANFDLIRRRFLAVNERTLRYDLKKLSDLGLIKKLGKTRGVYYRAAK,≥ 0.43
12,HMTKGVKVEIGTEEASVDLYVVMEYGTPIQKAAYDAQESVRKAIETMTNLHVVRVDVHVQGVSF,≥ 0.43
13,HMATSNGEFVIPDGGLQFEELERSLLMQALKKSGGSQTGAARLLGLSRDTLRYRLEKFGIDAAAVRE,-0.149
14,HMGPVRDLGLLESAAHRPTTALWGRDVYATIEKKAAALLDSLVRDRPLADGNKRLGWLAALV,0.0116
15,HMSETVYQYVARQLRDMLGSGEIPVGQQLPTYRELAKRFQVSLSVIQRAMRQLKAEAVVSIAHGQGVKAVR,-0.176
16,HMSDNLSASERKALSHMEGMESVRSSEVADLLGMSQRGAQKLLNRLVDKGLASSFGANRNRRYSVE,0.111
17,HMKAEKEIEKIKFTIYNEFKRKQEENHFLPPWDGTKMLRQFVLGVVANNPKYQHVNTDILYRDLLLLYYQ,-0.166
18,HMGKPTPASQVATRWLTGNLPESLPVAGPAPSFEALARTVSTDLHPRSVLQELVRLGVAEEANGVVTLRRQ,-0.0399
19,HMNNGTDGLTTRLRRAILAGQYTFKERLPSERQLAEHFNTSRGTVRKVLQRLTTMNLVEQRAGSGTYVRYG,0.22
20,HMSVAPISYSQFESYLEQGKVASVAVGQDTIAGRFTAPVDGKSQFVTTIVNPQILDRIDKSGVEITGV,-0.175
21,HMEEEVKVPKIKGLTEAEAKAKLKSEGLESGTARSAYSDTVEEGHIISQSIQEGTKVPKGTAVSYEVSKGK,0.22
22,HMKTNQINVSGLSKEKNFEVLESLDVYKFYNLFFLNKIKIDQLINSYNHIDNYSVFKKYPSSLIVKLSE,-0.0619
23,HMGRHSPLSIEQKEQLKTEIVALQQQRGGGRVTAVNIAELIQQKFNVVYNPNSLYKLLKQIGMSWV,-0.311
24,HMGKTTQEIEERSSTSTLTLTQTPKEIISVQGKKSDQSFFTNIQYTQNGKVIVPKQTGIYDTIKVVFTVSL,-0.256
25,HMGDFVIVPDLIGKTIEEFDSELNELNLKYIISDSGNYNPDFKINSVLDQLPNANSKVKGGRKIYITLNAS,-1.48

row,Sequence,soluble fraction (log2)
1,HMTAGTGIAYSEFRSKVQEGQVKDVAIAPDRITGTLSSGQKFSTVPVNDPGLPKMLDDFNVKYSGQA,0.22
2,HMAYSEEERNLIRSRLKDVAAALFKEKGIRDTNIDEIYTPVGISKTFFYSFFPSKAVLAIAIMK,-0.267
3,HMKIQTYEDFRNAYPDIQGSLFGSAERYKTDLDWGDVAAKYDADEELKNVRNIFQLVRRYEQKYS,-0.643
4,HMDGRVQATAEKLRAALDRLARSSVGSPMIERQLTVAALAREARVGRNAIYANHRDILDELIRVRQQRRA,-0.309
5,HMGEGTAVGKALKFLAAQGKKFAPELLDMAGSLTGVEALSKLGDAIKGDPELSELDKRILLAELETDAV,-0.744
6,HMKALDTVLSEIPGLGPVRIKQLLKVFGSVDAIRKASLQDLQQIEGIGPKLAQTIYEYFHQP,-0.328
7,HMTELVIPDYFSKALAKNKKAKQVFEAFAYSHRKEYLQWITEAKTEETRNKRMATAIEWIAEGKGRNWKYA,≥ 0.43
8,HMEEKEIGQTLSVKIRENVLSKLDMTRDLEDEEVKHIIEHEIWLAAKKHYISLEERNSIKRGIFNSL,-0.773
9,HMNAEQLAQVRRQKIGFIFQDFRLFPEYTVRDNILIPFYLDHRAPDEQMLHKLTGILGIAGKLHSRPAQL,-0.0979
10,HMSVDDEQLLKIIDDIFQQNPQAVTDAKTDSNAIHFLIGQVMKETKGHADHAISKEIIEKKLS,-0.726
11,HMSEIVEEQNTKLKQAVSKLSKRQQEVLYLKFEEGLDYEQISKIMDLKYQSVRNLVSTAIIKIKEH,0.0707
12,HMSAPGYRAVYPGMLESERQTAYELLSSSGFDVKINTSSGELEVTTDRYHEARMVMASQNIPK,-1.18
13,HMKKQLKSEAVADELRRKILSGGFPDKRLPRKDELTEYFQVSQKTVEAALKMLTAEGLIRGVKGTGIFVNG,0.156
14,HMRRMTEEQSKLFQGLVSIVQTTLVADMEKGAVTPLLIAEKVDFVADNLYPGKDIDRKEAVAELIRRFSLW,-0.875
15,HMGSQLYTLEVEADEKISLIENNPLLIQKIYLKDNNLFSYKIASSSKTEIASIEKELEKNPSIKRLETA,-0.502
16,HMIGKLTSSKLAAIHKMKTNELLAHFTEKGFLNINDAGKYILTQQGKDVGAEFKTSQYGGYFLWPENIE,0.0031
17,HMSLPTYVQISEAIARRITAGQWLDGERLPPERTMAAEFGVAVGTLRKALSRLQDQKLLRRLQGSGNYINI,-0.264
18,HMASKTGTITATSLNVRSGAATTYSILGTLSNGKTVTIYEESNGWYKINYNGGYGWVSKTYVSTG,-0.105
19,HMSKKIVLPAAITVKKFSETLDMPLGTVISELMKNGILATINERIDFETASIIAQDLGYEVSEEV,0.0626
20,HMATNVLEISTRNKNILIQDSLNLVESFYSKSDNQYWYKLVFKTKDDLNKFLQEVSEDENTITYKTSSI,-0.194
21,HMGMTTSILDDVIGMGPKRKKALLKAFGSFGALRNATLEEIKQTHTVPEQVAEDVYAVLVQYNSKSE,-0.171
22,HMSADKAEAAEASLKSFNLRLQAAAMEAGKTFAPVTADQYAEYKAAWGTYIRKGIEGLSESEKKTINVG,-0.167
23,HMSKHAIQNELEKIEGIGKQTADSLLKEFKSVKKLRTLPLSEIEKVIGKSKATIVFEALHKDK,0.0949
24,HMDIKEIIKNRRIELGLTLKEVATAVGVSEGTVSRWESGNITNMKRNKIAALAKTLQIPPTTI,0.0875
25,HMHDAKAEIIRLSALLTEYQRSYYIDGHSQVSDLEYDRLFDRLVALETSHPELREADSPTQRV,-1.14

# Source: the domain aggregation screens of Martell et al. (2025)
